From the nanobody polyreactivity screen of Harvey et al. (2022)

Assay: yeast display, Sf9 membrane polyspecificity reagent, FACS + sequencing; frameworks hold sequencing errors
How it was run: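 In a synthetic yeast display library (Saccharomyces cerevisiae BJ5465), nanobody expression was induced with galactose for 36–48 hours. FACS gates were set low and high (top ~1%) using anti-HA fluorescence for expression and streptavidin fluorescence for binding of the Sf9 membrane reagent. Each polyreactivity label is drawn from the gate of origin.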

Row | Sequence | polyreactivity (PSR sort gate)
1 | QVQLVESGGGLVQAGGSLRLSCAASGRTFYTYAMGWYRQAPGKERELVAAITVTGDSTYYADSVKGRFTISRDNAKNTVYLQMNSLKPEDTAVYYCAADDYDPWYDWTMYYWGQGTQVTVSS | high polyreactivity
2 | QVQLVESGGGLVQAGGSLRLSCAASGRTFYTYAMGWYRQAPGKERELVAAITYRGGNTYYADSVKGRFTISRDNAKNTVYLEMNSLKPEDTAVYYCAATYKRRSGQSFDYWGQGTQVTVSS | high polyreactivity
3 | QVQLVESGGGLVQAGGSLRLSCAASGRTFYTYAMGWYRQAPGKERELVAGIRTGGGSTYYADSVKGRFTISRDNAKYSVYLQMNSLKPDDTAVYYCAADTYDGYDYWGQGSQVTVSS | low polyreactivity
4 | QVQLVESGGGLVQAGGSLRLSCAASGRTFYTYARGWYRQAPGKERELVAAITKRGGSTYYADSVKGRFTISRDYAKNTVYLQMNSLKPEDTAVYYCNQELATARGQSLYRTYSGYGYWGQGTQVTVSS | high polyreactivity
5 | QVQLVESGGGLVQAGGSLRLSCAASGRTFYVNAMGWYRQAPGKERELVASITSGGSTYYADSVKGRFTISRDNAKNTVSLQMNSLKPEDTAVYYCAAGSKDLYRPYDYWGQGTQLTVSS | high polyreactivity
6 | QVQLVESGGGLVQAGGSLRLSCAASGRTFYVYDMGWYREAPGKVRELVAFISSSGSTNYADSVKGRFTISRDNAKYTVYLQMNSLKPEDTAGYYCNKRLIYYRGTYYSRRFDYWGQGTQVTVSS | high polyreactivity
7 | QVQLVESGGGLVQAGGSLRLSCAASGRTFYVYDMGWYRQAPGKERELVAAISNICTRTYYADSVKGRFTISRDNAKNTVYLQMNSLKPEVTAVYYCATGRSRVYKGRGDYWGQGTHVTVSS | high polyreactivity
8 | QVQLVESGGGLVQAGGSLRLSCAASGRTFYVYSMGWYRQAPGKERELVAAITASGGSTYYADSVKGRFTLSRDNAKNTVYLQMHSLKPEDTAVYYCAARVVTRVRGVGYNYWGHGTQVTVSS | high polyreactivity
9 | QVQLVESGGGLVQAGGSLRLSCAASGRTFYVYTMGWYIQAPGKEREMVAGIAYSGGSTYYADSVKGRFTISRDNAKNTVYLQMNSLKPEDTAVYYCNADLYFPYFDGKTRHGGYWGQGTQVTVSS | low polyreactivity
10 | QVQLVESGGGLVQAGGSLRLSCAASGRTFYWNAMGWYRQAPGKERELVAAIRWRGGNTYYADSVKGRFTISRDNAKNTVYLQMNSLKPEDTEVYYCNKYGYKGGVGYDYWGQGTQVTVSS | high polyreactivity
11 | QVQLVESGGGLVQAGGSLRLSCAASGRTFYWYTMGWYRQAPGKERELVAAITYRAGSTYYADSVKGRFTISRDNAKNTVYLQMNSLKPEDTAVYYCNADPPPEYYPDKDNYWGQGTQVTVSS | low polyreactivity
12 | QVQLVESGGGLVQAGGSLRLSCAASGRTFYWYVMGWYRQAPGKERELVAAITQTGSSTYYADSVKGRFTISRDNAKNTVYLQMNSLKPEDTAAYYCADRLSRNHYEVDYWGQGTQVTVSS | low polyreactivity
13 | QVQLVESGGGLVQAGGSLRLSCAASGRTFYYAMGWYRQAPGKERELVATITSGGSTNYADSVKGRFTISRDNAKNTVYVQMNSLKPEDTAVYYCNRDIPPGNYYKALYYYWGQGTQVTVSS | low polyreactivity
14 | QVQLVESGGGLVQAGGSLRLSCAASGRTFYYARGWYRQAPGKERELVAAITSSSSTYSADSVKGRFTISRDNAKNTVYLQMNSLKPEDTAVYYCNAADDPYGSPSYGYDYWGQGTQVTVSS | low polyreactivity
15 | QVQLVESGGGLVQAGGSLRLSCAASGRTFYYNGMGWYRQAPGKERELVAAITSGGTTSYADSVKGRFTISRDNAKNTVYLLMNCLKPEDTAVYYCNAECAPWGSAYGHDQYDYWGQGTQVTVSS | low polyreactivity
16 | QVQLVESGGGLVQAGGSLRLSCAASGRTFYYNVMGWYRQAPGKERELVAAISTGVSTNYADSVKGRFTISRDNAKNTVYLQMNSLKPEDTAVYYCNARSYRWYRPVYRYDYWGQGTQVTVSS | high polyreactivity
17 | QVQLVESGGGLVQAGGSLRLSCAASGRTFYYYAMGWYIQAPGKEREFVASISYSGARTYYADSVKGRFTISRDNAKNTVYLQMNSLKPEDTAVYYCNRYASNYGYIDYWGQGTQVTVSS | high polyreactivity
18 | QVQLVESGGGLVQAGGSLRLSCAASGRTFYYYAMGWYIQAPGKERELVATITKSSGSTSYADSVKGRFTISRDNAKNTVYLQMNSLKPEDTAVYYCAKVFRSGGVYRYDYWGQGTQVTVSS | high polyreactivity
19 | QVQLVESGGGLVQAGGSLRLSCAASGRTFYYYAMGWYRQAPGKERELVAAISRGGGSTYYADSVKGRFTISRDNAKNTVYLQMNSLKPEDTAVYSWNKVYSTSSYDYWGQGTQVTVSS | high polyreactivity
20 | QVQLVESGGGLVQAGGSLRLSCAASGRTFYYYAMGWYRQAPGKERELVAAISSNGGSTYADSVKGRYTISRDNAKNTVYLQMNSLKPEDTAVYYCNARFTYRWGMGYWGHGTQVTVSS | high polyreactivity
21 | QVQLVESGGGLVQAGGSLRLSCAASGRTFYYYAMGWYRQAPGKERELVAAITSNGGSTYYADSVKGRFTISRDNAKNTVYLPMNSLKPEDTAVYYCAADTYWYLSPYDYWGQGTQVTVSS | low polyreactivity
22 | QVQLVESGGGLVQAGGSLRLSCAASGRTFYYYAMGWYRQAPGKERELVARISRGGSTNYADSVKGRFTISRDNAKNTVYLQMNSLKPEDTAVYYCAKTISYTGRFWGYDYWGQGTQVTVSS | high polyreactivity

Row | Sequence | polyreactivity (PSR sort gate)
23 | QVQLVESGGGLVQAGGSLRLSCAASGRTFYYYGMGWYRQAPGKERELVAAINRGDSTKYADSVKGRFTISRDNAKNTVYLQMNSLKPEDTAVYYCNARLRASFARFIYEYWGQGTQVTVSS | low polyreactivity
24 | QVQLVESGGGLVQAGGSLRLSCAASGRTIADNAMGWYRQAPGKEREVVATISYSDSTTYYADSVKGRFTISRDNAKNTVYLQMNSLKPEDTAVYYCAAERLTHWGAFAAYDYWGQGTQVTVSS | low polyreactivity
25 | QVQLVESGGGLVQAGGSLRLSCAASGRTIANNAMGWYRQAPGKERQLVAVITNSGRTYYADSVKGRFTISRDNAKNTVYLQMNSLKPEDTAVYYCAVRYFDRGGSEHPVTFYWGQGTQVTVSS | high polyreactivity
26 | QVQLVESGGGLVQAGGSLRLSCAASGRTIAQYAMGWSRQAPGKERELVAAISSSGGSTYYADSVKGRFTISRDNAKNTVYLQMNSLKPEDTAVYYCAKYGTKAKQYDYWGQGTQVTVSS | high polyreactivity
27 | QVQLVESGGGLVQAGGSLRLSCAASGRTIDHNTMGWYRQAPGKERELVAAISWSGGTTYYADSVKGRFTISRDNEKNTVYLQMNSLKPEDTAVYYCAADRSRGSYGYQYDYWGQGTQVSVSS | low polyreactivity
28 | QVQLVESGGGLVQAGGSLRLSCAASGRTIDHYAMGWYRQAPGKDRELVAAISTTGGSTYYADSVKGRFTISRDNAMNTVYLQMNSLKPEDTAVYFCAARGLRTGGYWGQGTQVTVSS | high polyreactivity
29 | QVQLVESGGGLVQAGGSLRLSCAASGRTIDHYAMGWYRQAPGKERELVAAISTTGGSTYYADSVKGRFTISRDNAKNTVYLQMNSLKPEYTAVYYCAARGLRTGGYWGQGTQVTVSS | high polyreactivity
30 | QVQLVESGGGLVQAGGSLRLSCAASGRTIDPNAMGWYRQAPGKERELVAAITRTGVRTYYADSVKGRFTISRDNAKNTVYLQMNSLKPEDTAVYYCNRYGARSNDYWGQGTQVTVSS | low polyreactivity
31 | QVQLVESGGGLVQAGGSLRLSCAASGRTIDRMLMGSYRQAPGKERELVAAITSGGRTNYADSVKGRFTISRDNAKNTVYLKMNSLKAEDTAFYYCARHGGRRPVSSKGNTYDYWGQGTQVTVLS | low polyreactivity
32 | QVQLVESGGGLVQAGGSLRLSCAASGRTIDWYAMGWYRQAPGKVRELVAGITYSGGSTYYADSVKGRFTISRDIANKTVYFQMNSLKPEDTAVYYCAAAKSYRSGSWYEYWGQGTQVTVSS | high polyreactivity
33 | QVQLVESGGGLVQAGGSLRLSCAASGRTIEGNVMGWYRQAPGKERELVAAITRTAGSTYYADSVKGRFTISRDNAKNTVYLQMNSLKPEDTAVYYCAVEGIYRWYDYSWYYTSTYDYWGQGTQVTVSS | low polyreactivity
34 | QVQLVESGGGLVQAGGSLRLSCAASGRTIFYNAMGWYRQAPGKERELVAAINWRGGSTYYADSVKGRFTISRDIAKNTVYLQMNSLKPEDTAVYYCAARNVYVWYDYWGQGTQVTVSS | low polyreactivity
35 | QVQLVESGGGLVQAGGSLRLSCAASGRTIGAYAMGWYRQAPGKEREFVAAITFGGGPTYYADSVKGRFTISRDNAKNTVYLQMNSLKPEDTAVYYCAKRIDLSFPYARYDYWGQGTQVTVSS | low polyreactivity
36 | QVQLVESGGGLVQAGGSLRLSCAASGRTIGGYVMGWYRQAPGTERELVAVITISGGSTYYADSVKGRFTISRDNAKNTVYLQMNSLKPEDTAVYYCAARTYYGYDYWGQGTQVTVSS | high polyreactivity
37 | QVQLVESGGGLVQAGGSLRLSCAASGRTIGSYAMGWYRQAPGKERELVAAITSSCGSTYYADSVKGRFTISRDNAKNTVYLQMNSLKPEDTAVYDCAALWGRRGWWGVSWSFSTGFDYWGQGTQVTVSS | high polyreactivity
38 | QVQLVESGGGLVQAGGSLRLSCAASGRTIGVYALGWSRQAPGKERELVAALTTSGDSTYYADSVKGRFTISRDNAKNTDYLQMNSLKPEDTAVYYCAARSYRKPRHVSVTYYYWGQGTQVTVSS | low polyreactivity
39 | QVQLVESGGGLVQAGGSLRLSCAASGRTIGYNDLGWYRQAPGKERELVAAIDWSGGSTYYADSVKGRFTISRDNAKNTVYLQMNSLKPEDTAVYDCAALVWRDEYDYLGQGTQVTVSS | low polyreactivity
40 | QVQLVESGGGLVQAGGSLRLSCAASGRTIKYTAMGWYRQAPGKERDLVAAITYSGGSTYYADSVKGRFTISRDNAKNTVYLQMNSLKPEDTAVYYCGQGTQVTVSS | low polyreactivity
41 | QVQLVESGGGLVQAGGSLRLSCAASGRTIPFNAMGWYRQAPGKERELVAAISSSAGRTYYADSVKGRFTISRDNAKNTVYLQMNSLKPEDTAVYYCAARLYGRYRYDYWGHGTQVTVSS | low polyreactivity
42 | QVQLVESGGGLVQAGGSLRLSCAASGRTIPNVMGWYRQAPGKERELVAAISSSVGSTSYADSVKGRFTISRDNAKNTVYLQMNSLKPEDTAVYYCAARYYYRDWVGIISTYYYWGQGTQVTVSS | high polyreactivity
43 | QVQLVESGGGLVQAGGSLRLSCAASGRTIPTYDMGWYRQAPGKERELVASIRSGGRTKYADSVKGRFTISRVNAKNTVYLQMNSLKPEDTAVYYCAADRRAYYYSFDYWGQGTQVTVSS | low polyreactivity
